{"source": "patent US20190275108A1", "about": "“COMPOSITIONS IN THE FORM OF AN INJECTABLE AQUEOUS SOLUTION COMPRISING AMYLIN, AN AMYLIN RECEPTOR AGONIST OR AN AMYLIN ANALOGUE AND A CO-POLYAMINO ACID” (ADOCIA, priority 2017, published 2019)", "origin": "cited, not measured here", "note": "Like-named read-outs stand apart in the source and are kept apart here."}
{"substance": "amylin: peptide of 37 amino acids, co-stored and co-secreted with insulin (KCNTATCATQRLANFLVHSSNNFGAILSSTNVGSNTY; Islet amyloid polypeptide; UniProt P10997 34-70, looked up)", "values": [{"measurement": "Time for which amylin is stable", "setting": "acidic pH", "result": "about fifteen"}, {"measurement": "Time for which amylin is stable", "setting": "neutral pH", "result": "less than a minute"}]}
